Measured values taken from US20210032312A1 (Janssen / Centocor, published 2021).

Assays:
[1] = target: T1, In house human CD8A-Fc (human, UniProt P01732 22-182, limits assumed); test: SPR (ProteOn), captured hCD8A-Fc
T1 construct: Captured on goat anti-human Fc on a ProteOn GLC chip; also called hCD8A-Fc; recombinant human CD8 alpha; not shown: linker with flag (and polyhistidine) tag and Fc of human IgG1

[2] = target: T2, cynomolgus monkey CD8A on primary cynomolgus monkey CD8+ T cells (cynomolgus monkey, UniProt P01732 23-235 (human entry)); test: flow cytometry, cyno CD8+ T cells, 0.2 uM FN3
T2 construct: also called Cyno CD8alpha
T2 sequence (P01732 other isoform, or with tags, fused parts or gaps limits assumed): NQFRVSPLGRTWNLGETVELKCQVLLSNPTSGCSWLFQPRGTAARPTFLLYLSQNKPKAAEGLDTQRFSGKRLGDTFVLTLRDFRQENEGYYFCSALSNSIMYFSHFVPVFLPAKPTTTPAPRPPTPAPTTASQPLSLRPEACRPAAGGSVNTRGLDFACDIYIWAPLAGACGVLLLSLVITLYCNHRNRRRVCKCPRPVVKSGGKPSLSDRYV

[3] = target: T3, human CD8 alpha (CD8A) on primary human CD8+ T cells (human, UniProt P01732 22-235); test: flow cytometry, human CD8+ T cells, 2 uM FN3
T3 construct: whole, on cells; also called hCD8A
T3 sequence (P01732 22-235): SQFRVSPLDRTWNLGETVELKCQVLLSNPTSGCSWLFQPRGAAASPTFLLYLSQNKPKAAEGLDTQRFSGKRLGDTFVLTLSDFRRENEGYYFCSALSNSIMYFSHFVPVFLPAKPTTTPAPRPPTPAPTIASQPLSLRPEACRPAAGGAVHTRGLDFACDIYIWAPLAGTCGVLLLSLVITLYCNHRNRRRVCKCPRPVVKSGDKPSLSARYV

[4] = target: T3, human CD8 alpha (CD8A) on primary human …; test: flow cytometry, human CD8+ T cells, 0.2 uM FN3
[5] = target: T2, cynomolgus monkey CD8A on primary …; test: flow cytometry, cyno CD8+ T cells, 2 uM FN3
[6] = target: T4, human CD8A-Fc (in house) (human, UniProt P01732 22-182, limits assumed); test: SPR (ProteOn), captured hCD8A-Fc
T4 construct: captured by goat anti-human Fc on the ProteOn chip; also called hCD8A-Fc; recombinant human CD8 alpha; not shown: linker/tag and Fc of human IgG1
T4 sequence (P01732 22-182 limits assumed): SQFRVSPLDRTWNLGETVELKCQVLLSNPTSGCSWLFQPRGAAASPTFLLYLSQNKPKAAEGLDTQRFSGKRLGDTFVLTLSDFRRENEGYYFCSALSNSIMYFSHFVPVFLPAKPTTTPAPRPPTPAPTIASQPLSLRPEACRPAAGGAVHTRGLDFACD

[7] = target: T5, human CD8 alpha (CD8A) on primary human CD8+ T cells (human, UniProt P01732 22-235); test: flow cytometry, human CD8+ T cells
T5 construct: whole, on cells; also called hCD8A
Description: (§1) Binding of the 190 ELISA hits to human and cynomologous monkey primary CD8 T cells was assessed by flow cytometry. The FN3 domain molecules were diluted to 2 μM and 0.2 μM in PBS and incubated with human or cynomologous monkey CD8+ T cells in 96-well format. After 1 hour at 4 C, the cells were washed once with PBS and then resuspended with an anti-FN3 domain antibody (PAB25) solution. Following this incubation, the cells were washed twice with PBS and a PE conjugated secondary antibody and a viability dye were added. Finally, cells were washed and resuspended in PBS for flow cytometric analysis using a BD Canto Instrument. Cells were gating on live cells and median fluorescence intensity of the bound Centyrins (PE channel) was calculated using Cytobank software.
T5 sequence (P01732 22-235): as the sequence (P01732 22-235) above

[8] = target: T6, cynomolgus monkey CD8 alpha on primary cynomolgus CD8+ T cells (cynomolgus monkey, UniProt P01732 23-235 (human entry)); test: flow cytometry, cyno CD8+ T cells
T6 construct: also called Cyno CD8alpha; cyno CD8A
T6 sequence (P01732 other isoform, or with tags, fused parts or gaps limits assumed): as the sequence (P01732 other isoform, or with tags, fused parts or gaps limits assumed) above
Description: as §1

T1 sequence (P01732 22-182 limits assumed): as the sequence (P01732 22-182 limits assumed) above

| Binder | koff [1] | Cyno T-cell Binding 0.2 uM (MFI) [2] | Human T-cell Binding 2 uM (MFI) [3] | Human T-cell Binding 0.2 uM (MFI) [4] | Cyno T-cell Binding 2 uM (MFI) [5] | koff [6] | Human T-cell Binding 0.2 uM (MFI) [7] | Human T-cell Binding 2 uM (MFI) [7] | Cyno T-cell Binding 0.2 uM (MFI) [8] | Cyno T-cell Binding 2 uM (MFI) [8] |
| --- | --- | --- | --- | --- | --- | --- | --- | --- | --- | --- |
| P283AR9P1362_C6 (designed binder, FN3 domain) LPAPKNLVVSRVTEDSARLSWYPSDPPFDSFLIQYQESEKVGEAIVLTVPGSERSYDLTGLKPGTEYTVSIYGVPNYHSRRSYYYSNPLSAIFTT | 0.00109 s⁻¹ | 5690 MFI | 16000 MFI | 4150 MFI | 17500 MFI | – | – | – | – | – |
| P283FR9P1366_H11 (designed binder, FN3 domain) LPAPKNLVVSRVTEDSARLSWTAPDAAFDSFQIQYLETAPDGEAIVLTVPGSERSYDLTGLKPGTEYYVWIPGVKGGAFSPLSAIFTT | – | – | – | – | – | 0.00139 s⁻¹ | 2330 MFI | 18900 MFI | 3660 MFI | 37400 MFI |
| P283BR9P1363_D11 (designed binder, FN3 domain) LPAPKNLVVSRVTEDSARLSWNKKHDGQPTFDSFLIQYQESEKVGEAIVLTVPGSERSYDLTGLKPGTEYTVSIYGVDVVYEGSYPASSNPLSAIFTT | 0.000495 s⁻¹ | 11600 MFI | 8690 MFI | 2890 MFI | 20600 MFI | – | – | – | – | – |
| P283BR9P1363_A8 (designed binder, FN3 domain) LPAPKNLVVSRVTEDSARLSWVRSDTARFFDSFLIQYQESEKVGEAIVLTVPGSERSYDLTGLKPGTEYTVSIYGVDVKYDIDSRPISSNPLSAIFTT | 0.000353 s⁻¹ | 3450 MFI | 11300 MFI | 2540 MFI | 24200 MFI | – | – | – | – | – |
| P283AR9P1362_D2 (designed binder, FN3 domain) LPAPKNLVVSRVTEDSARLSWQRPKSGFFDSFLIQYQESEKVGEAIVLTVPGSERSYDLTGLKPGTEYTVSIYGVDVKYDIDSRPISSNPLSAIFTT | 0.000253 s⁻¹ | 5330 MFI | 8650 MFI | 2760 MFI | 17200 MFI | – | – | – | – | – |
| P283AR9P1362_H11 (designed binder, FN3 domain) LPAPKNLVVSRVTEDSARLSWPKIQGQHFDSFLIQYQESEKVGEAIVLTVPGSERSYDLTGLKPGTEYTVSIYGVDVKYDIDSRPISSNPLSAIFTT | 0.00018 s⁻¹ | 3660 MFI | 5730 MFI | 2270 MFI | 11600 MFI | – | – | – | – | – |
| P283BR9P1363_C4 (designed binder, FN3 domain) LPAPKNLVVSRVTEDSARLSWPIVNTPLHFDSFLIQYQESEKVGEAIVLTVPGSERSYDLTGLKPGTEYTVSIYGVDVQYTATGQPERSNPLSAIFTT | 0.000409 s⁻¹ | 3270 MFI | 9070 MFI | 2250 MFI | 23400 MFI | – | – | – | – | – |
| P283DR9P1364_E8 (designed binder, FN3 domain) LPAPKNLVVSRVTEDSARLSWTAPDAAFDSFSIAYPEWPVHGEAIVLTVPGSERSYDLTGLKPGTEYFVIIYGVKGGVLSEPLSAIFTT | – | – | – | – | – | 0.000756 s⁻¹ | 1180 MFI | 14300 MFI | 5510 MFI | 59300 MFI |
| P283DR9P1364_D9 (designed binder, FN3 domain) LPAPKNLVVSRVTEDSARLSWTAPDAAFDSFGISYPEWPPLGEAIVLTVPGSERSYDLTGLKPGTEYWVIIFGVKGGERSWPLSAIFTT | – | – | – | – | – | 0.00043 s⁻¹ | 5240 MFI | 42300 MFI | 20000 MFI | 88300 MFI |
| P283DR9P1364_D8 (designed binder, FN3 domain) LPAPKNLVVSRVTEDSARLSWTAPDAAFDSFQIAYPETPIQGEAIVLTVPGSERSYDLTGLKPGTEYFVIIHGVKGGITSFPLSAIFTT | – | – | – | – | – | 0.00661 s⁻¹ | 244 MFI | 656 MFI | 365 MFI | 2480 MFI |
| P283DR9P1364_B11 (designed binder, FN3 domain) LPAPKNLVVSRVTEDSARLSWTAPDAAFDSFYISYPEWEQLGEAIVLTVPGSERSYDLTGLKPGTEYFVVIYGVKGGALSAPLSAIFTT | – | – | – | – | – | 0.0013 s⁻¹ | 451 MFI | 4260 MFI | 1590 MFI | 22900 MFI |
| P283DR9P1364_B1 (designed binder, FN3 domain) LPAPKNLVVSRVTEDSARLSWTAPDAAFDSFYITYPEIPLGGEAIVLTVPGSERSYDLTGLKPGTEYFVVIYGVKGGLLSSPLSAIFTT | – | – | – | – | – | 0.00156 s⁻¹ | 666 MFI | 1480 MFI | 746 MFI | 8620 MFI |
| P283DR9P1364_A4 (designed binder, FN3 domain) LPAPKNLVVSRVTEDSARLSWTAPDAAFDSFYIAYPEWPVQGEAIVLTVPGSERSYDLTGLKPGTEYFVIIYGVKGGDWSEPLSAIFTT | – | – | – | – | – | 0.00109 s⁻¹ | 1024 MFI | 9490 MFI | 6650 MFI | 48300 MFI |
| P283DR9P1364_B4 (designed binder, FN3 domain) LPAPKNLVVSRVTEDSARLSWTAPDAAFDSFAISYPEWPPPGEAIVLTVPGSERSYDLTGLKPGTEYWVIILGVKGGDQSWPLSAIFTT | – | – | – | – | – | 0.000109 s⁻¹ | 6060 MFI | 45500 MFI | 20200 MFI | 96500 MFI |
| P283DR9P1364_D11 (designed binder, FN3 domain) LPAPKNLVVSRVTEDSARLSWTAPDAAFDSFDIAYPEWPPKGEAIVLTVPGSERSYDLTGLKPGTEYFVVIYGVKGGIHSAPLSAIFTT | – | – | – | – | – | 0.000514 s⁻¹ | 4220 MFI | 32300 MFI | 16200 MFI | 70400 MFI |
| P283DR9P1364_C10 (designed binder, FN3 domain) LPAPKNLVVSRVTEDSARLSWTAPDAAFDSFQIAYPEWPKDGEAIVLTVPGSERSYDLTGLKPGTEYAVFIWGVKGGVYSNPLSAIFTT | – | – | – | – | – | 0.00129 s⁻¹ | 649 MFI | 4940 MFI | 2710 MFI | 34200 MFI |
| P283DR9P1364_E3 (designed binder, FN3 domain) LPAPKNLVVSRVTEDSARLSWTAPDAAFDSFGIAYPELPIGGEAIVLTVPGSERSYDLTGLKPGTEYFVIIRGVKGGTLSPPLSAIFTT | – | – | – | – | – | 0.00253 s⁻¹ | 317 MFI | 1280 MFI | 887 MFI | 9130 MFI |
| P283DR9P1364_A7 (designed binder, FN3 domain) LPAPKNLVVSRVTEDSARLSWTAPDAAFDSFRIAYPEWPVRGDAIVLTVPGSERSYDLTGLKPGTEYWVIIQGVKGGTDSFPLSAIFTT | – | – | – | – | – | 0.00197 s⁻¹ | 435 MFI | 8980 MFI | 2640 MFI | 39900 MFI |
